According to PMC7026483:

Target: T1, GlxR-A131T A131T (Corynebacterium glutamicum WT (ATCC 13032?)) (UniProt Q79VI7)
T1 sequence: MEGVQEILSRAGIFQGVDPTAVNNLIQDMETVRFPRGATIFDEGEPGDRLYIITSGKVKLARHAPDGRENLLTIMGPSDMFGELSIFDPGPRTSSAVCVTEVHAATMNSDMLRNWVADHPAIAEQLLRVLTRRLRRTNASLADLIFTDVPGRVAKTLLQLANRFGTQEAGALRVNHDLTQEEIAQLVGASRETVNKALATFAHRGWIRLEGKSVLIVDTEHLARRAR
Experiment: EMSA
Conditions: EMSA: 100 ng DNA, 200 nM protein, with or without 0.2 mM cAMP, 30 min, room temperature, 10% native PAGE; binding buffer as in Bussmann et al. 2009 (not …)

Sequence | binding
CTTCCTGGCGAAATGTCCGTCAAATTGTGAACCCCTTCACACCTTTGGTTAAAAGTCACTGCCCACAAGTGACTGAACCTGGCAGCGACCTCATGAATTGTTTGAAAAACATTTTTTTTGGGCATGAAAAGGGGATACAG (double strand) [ctaD promoter fragment] | binds
GGTGGAAATATCTTCGTGGGTTTCGTTTTTAGGGGCGTCAAATGTCTTTCAACTGCAACGATATGCCCGAATCCTCAGGTGGAATACCTAAAGTCTAGGCAATTGGTGTATGCCACGTCACAGACCATCAAC (double strand) [ctaCF promoter fragment] | binds
